Measurements from patent publication EP4541815A1 (Huahui Health Ltd., dated 2023).

How the values were obtained:
[1] = biological target: FcγRIIIa F158 on Jurkat/NFAT-luc2p/FcγRIIIa F158 cells (UniProt P08637 17-254, limits assumed); test: cell-based or functional assay
[2] = biological target: Pre-S1 domain of hepatitis B virus (L protein) on recombinant HBV D genotype virus (hepatitis B virus, D genotype); test: cell-based or functional assay
[3] = biological target: T1, FcγRIIa R131 on Jurkat/NFAT-luc2p/FcγRIIa R131 cells (UniProt P12318 34-317, limits assumed); test: cell-based or functional assay
T1 sequence (looked up): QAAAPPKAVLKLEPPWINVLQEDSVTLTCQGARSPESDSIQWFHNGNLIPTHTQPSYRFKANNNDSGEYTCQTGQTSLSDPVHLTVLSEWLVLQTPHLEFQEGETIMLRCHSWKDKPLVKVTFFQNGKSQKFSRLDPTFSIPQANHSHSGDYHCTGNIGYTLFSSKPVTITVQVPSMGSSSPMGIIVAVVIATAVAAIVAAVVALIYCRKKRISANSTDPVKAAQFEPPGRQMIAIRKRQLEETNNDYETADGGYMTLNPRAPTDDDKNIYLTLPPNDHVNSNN

[4] = biological target: T2, hFcγRIIb (recombinant, C-terminal 6xHis tag) (human, UniProt P31994 43-217); test: Biacore SPR, ratio against A14 WT
T2 construct: also called hFcyR2b
T2 sequence: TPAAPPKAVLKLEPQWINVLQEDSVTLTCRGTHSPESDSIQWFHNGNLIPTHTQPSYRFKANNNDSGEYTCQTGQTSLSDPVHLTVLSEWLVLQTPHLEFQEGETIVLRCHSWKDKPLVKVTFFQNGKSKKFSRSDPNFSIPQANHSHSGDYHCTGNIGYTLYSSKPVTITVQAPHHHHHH

[5] = biological target: T3, hFcγRIIa (H131) (recombinant, C-terminal 6xHis tag) (human, UniProt P12318 34-217); test: Biacore SPR, ratio against A14 WT
T3 construct: also called hFcyR2a H131
T3 sequence: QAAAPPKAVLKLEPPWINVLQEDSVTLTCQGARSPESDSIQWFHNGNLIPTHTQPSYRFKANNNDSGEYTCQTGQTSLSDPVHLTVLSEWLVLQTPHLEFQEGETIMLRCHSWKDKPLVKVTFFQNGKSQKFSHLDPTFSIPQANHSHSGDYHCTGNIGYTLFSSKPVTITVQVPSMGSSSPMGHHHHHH

[6] = biological target: T4, hFcγRIIIa (F158) (recombinant, C-terminal 6xHis tag) (human, UniProt P08637 17-208); test: Biacore SPR, ratio against A14 WT
T4 construct: also called hFcyR3a F158

[7] = biological target: T5, hFcγRIa (recombinant, C-terminal 6xHis tag) (human, UniProt P12314 16-292); test: Biacore SPR, ratio against A14 WT
T5 construct: also called hFcγR1a

[8] = biological target: T6, hFcγRIIIa (V158) (recombinant, C-terminal 6xHis tag) (human, UniProt P08637 17-208); test: Biacore SPR, ratio against A14 WT
T6 construct: also called hFcyR3a V158

[9] = biological target: T7, hFcγRIIa (R131) (recombinant, C-terminal 6xHis tag) (human, UniProt P12318 34-217); test: Biacore SPR, ratio against A14 WT
T7 construct: also called hFcyR2a R131
T7 sequence: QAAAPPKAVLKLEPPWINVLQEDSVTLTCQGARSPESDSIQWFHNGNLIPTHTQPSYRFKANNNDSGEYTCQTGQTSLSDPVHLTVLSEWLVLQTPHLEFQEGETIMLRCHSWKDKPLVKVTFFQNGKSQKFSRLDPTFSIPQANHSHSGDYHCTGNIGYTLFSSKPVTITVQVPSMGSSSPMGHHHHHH

[10] = biological target: T2, hFcγRIIb (recombinant, C-terminal 6xHis …); test: Biacore SPR, antibody captured on Protein G CM5 chip, hFcγR as mobile phase, pH 7.0, 1:1 Langmuir fit
[11] = biological target: T3, hFcγRIIa (H131) (recombinant, …); test: as above
[12] = biological target: T4, hFcγRIIIa (F158) (recombinant, …); test: as above
[13] = biological target: T5, hFcγRIa (recombinant, C-terminal 6xHis …); test: as above
[14] = biological target: T6, hFcγRIIIa (V158) (recombinant, …); test: as above
[15] = biological target: T7, hFcγRIIa (R131) (recombinant, …); test: as above

T5 sequence (P12314 other isoform, or with tags, fused parts or gaps): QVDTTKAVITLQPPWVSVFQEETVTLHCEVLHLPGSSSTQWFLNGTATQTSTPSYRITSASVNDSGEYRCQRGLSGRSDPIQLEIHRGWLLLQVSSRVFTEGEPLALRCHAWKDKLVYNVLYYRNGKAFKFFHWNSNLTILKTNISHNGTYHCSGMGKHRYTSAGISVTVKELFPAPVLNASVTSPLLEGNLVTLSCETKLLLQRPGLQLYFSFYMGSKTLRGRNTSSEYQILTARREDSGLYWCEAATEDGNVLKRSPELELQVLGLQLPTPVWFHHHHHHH
T4 sequence (P08637 other isoform, or with tags, fused parts or gaps): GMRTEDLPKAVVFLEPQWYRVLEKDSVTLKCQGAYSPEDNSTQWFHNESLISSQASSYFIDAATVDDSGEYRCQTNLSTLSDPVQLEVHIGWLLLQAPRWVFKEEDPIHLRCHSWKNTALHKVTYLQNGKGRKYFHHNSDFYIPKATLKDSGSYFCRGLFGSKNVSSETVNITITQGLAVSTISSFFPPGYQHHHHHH
T6 sequence (P08637 other isoform, or with tags, fused parts or gaps): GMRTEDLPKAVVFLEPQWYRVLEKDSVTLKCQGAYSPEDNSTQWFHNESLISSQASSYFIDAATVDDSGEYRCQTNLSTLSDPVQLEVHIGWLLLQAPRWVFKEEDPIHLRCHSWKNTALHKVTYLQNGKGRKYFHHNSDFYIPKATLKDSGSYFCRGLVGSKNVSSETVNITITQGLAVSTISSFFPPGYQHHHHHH

B1: afuco-A14 GA LS (antibody, human IgG1, lambda)
heavy: QVQLQQSGPGLVKPSQTLSLTCAISGDSVSSNSAAWNWIRQSPSRGLEWLGRTYYRSKWYNDYAVSVKSRITINPDTSKNQFSLQLNSVTPEDTAVYYCARGTRWGMDVWGQGTLVTVSSASTKGPSVFPLAPSSKSTSGGTAALGCLVKDYFPEPVTVSWNSGALTSGVHTFPAVLQSSGLYSLSSVVTVPSSSLGTQTYICNVNHKPSNTKVDKKVEPKSCDKTHTCPPCPAPELLAGPSVFLFPPKPKDTLMISRTPEVTCVVVDVSHEDPEVKFNWYVDGVEVHNAKTKPREEQYNSTYRVVSVLTVLHQDWLNGKEYKCKVSNKALPAPIEKTISKAKGQPREPQVYTLPPSRDELTKNQVSLTCLVKGFYPSDIAVEWESNGQPENNYKTTPPVLDSDGSFFLYSKLTVDKSRWQQGNVFSCSVLHEALHSHYTQKSLSLSPGK
light: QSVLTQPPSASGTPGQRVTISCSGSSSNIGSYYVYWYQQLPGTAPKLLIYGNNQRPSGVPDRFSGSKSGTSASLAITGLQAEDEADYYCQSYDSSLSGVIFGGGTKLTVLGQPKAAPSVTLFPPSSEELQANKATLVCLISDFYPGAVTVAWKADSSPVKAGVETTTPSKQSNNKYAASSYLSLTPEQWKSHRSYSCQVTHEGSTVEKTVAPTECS
[1]
  ADCC activity, fold enhancement compared to A14: 18.6 fold
[2]
  IC50 of inhibition of HBV infection of HepG2-hNTCP cells (HBeAg secretion): ~0.011 µg/mL
[3]
  ADCP activity, fold enhancement compared to A14: 4.7 fold
[4]
  Fold (KD of A14 WT over KD of afuco-A14 GA LS): 0.76 fold
[5]
  Fold (KD of A14 WT over KD of afuco-A14 GA LS): 4.63 fold
[6]
  Fold (KD of A14 WT over KD of afuco-A14 GA LS): 11 fold
[7]
  Fold (KD of A14 WT over KD of afuco-A14 GA LS): 0.41 fold
[8]
  Fold (KD of A14 WT over KD of afuco-A14 GA LS): 7.89 fold
[9]
  Fold (KD of A14 WT over KD of afuco-A14 GA LS): 3.83 fold
[10]
  Kd: 7470 nM
[11]
  Kd: 169 nM
[12]
  Kd: 588 nM
[13]
  Kd: 173 nM
[14]
  Kd: 123 nM
[15]
  Kd: 204 nM
